Assay [1] concerns the target PGCC(95-104) epitope peptide (Ac-…-NH2), pigeon cytochrome C (pigeon). Nature of the assay: ELISA, coated PGCC(95-104) peptide, control mouse serum, anti-mouse IgG1 or IgG2a detection. A general note: An ELISA detects its analyte on a solid surface through an enzyme-linked reagent.
Assay [2] has as its target HIV gp160(843-855) peptide (HIV). Nature of the assay: ELISA, coated HIV gp160(843-855) peptide, control mouse serum, anti-mouse IgG1 or IgG2a detection.

In assay [1], “Serum of mice given no immunogen (control of Table 22.1) (antibody)” yielded an ELISA absorbance at 450 nm, serum dilution 1:20 (absorbance (450 nm)) of 0.105; an ELISA absorbance at 450 nm, serum dilution 1:60 (absorbance (450 nm)) of 0.72; an ELISA absorbance at 450 nm, serum dilution 1:180 (absorbance (450 nm)) of 0.049; an ELISA absorbance at 450 nm, serum dilution 1:540 (absorbance (450 nm)) of 0.036.

For “Serum of mice given no immunogen (control of Table 22.2) (antibody)”, in assay [1], the ELISA absorbance at 450 nm, serum dilution 1:20 (absorbance (450 nm)) stood at 0.042; the ELISA absorbance at 450 nm, serum dilution 1:60 (absorbance (450 nm)) is 0.004; the ELISA absorbance at 450 nm, serum dilution 1:180 (absorbance (450 nm)) is -0.003; the ELISA absorbance at 450 nm, serum dilution 1:540 (absorbance (450 nm)) was found to be 0.007. In assay [1], this substance yielded an ELISA absorbance at 450 nm, serum dilution 1:1620 (absorbance (450 nm)) of 0.006 and an ELISA absorbance at 450 nm, serum dilution 1:4860 (absorbance (450 nm)) of 0.005.

“Serum of mice given no immunogen (control of Table 22.3) (antibody)”: in assay [2], the ELISA absorbance at 450 nm, serum dilution 1:20 (absorbance (450 nm)) was determined as 0.084; the ELISA absorbance at 450 nm, serum dilution 1:60 (absorbance (450 nm)) was determined as 0.045; the ELISA absorbance at 450 nm, serum dilution 1:180 (absorbance (450 nm)) is 0.004; the ELISA absorbance at 450 nm, serum dilution 1:540 (absorbance (450 nm)) is -0.003.

The values above are taken from patent US20080305122A1.
